The results in this text go back to the Human Domainome abundance scans (Beltran et al. 2025).

B1: Nucleolar transcription factor 1, residues 408 to 469; numbered along this chain, P17480 (parent)
chain: KRPVSAMFIFSEEKRRQLQEERPELSESELTRLLARMWNDLSEKKKAKYKAREAALKAQSER

± gives the uncertainty stated by the source.

Variants of B1 are the subject of this data set. As to the kind of experiment: abundance fitness (aPCA) (normalised: wild type 0, dead -1); higher = more abundant; growth selection in yeast, the domain comes from the species named. The following applies: Homo sapiens.
As to KRPFSAMFIFSEEKRRQLQEERPELSESELTRLLARMWNDLSEKKKAKYKAREAALKAQSER [V4F], the abundance fitness is -0.156 ± 0.078.

KRPRSAMFIFSEEKRRQLQEERPELSESELTRLLARMWNDLSEKKKAKYKAREAALKAQSER [V4R]: the abundance fitness was -0.24 ± 0.055.

Regarding KRPVSAMFIFSEEKRRQLQEERPELDESELTRLLARMWNDLSEKKKAKYKAREAALKAQSER [S26D], the abundance fitness was -0.157 ± 0.098.

As for KRPVSAMFIFSEEKRRQLQEERPELKESELTRLLARMWNDLSEKKKAKYKAREAALKAQSER [S26K], the abundance fitness is -0.476 ± 0.18.

With KRPVSAMFIFSEEKRRQLQEERPELIESELTRLLARMWNDLSEKKKAKYKAREAALKAQSER [S26I], the abundance fitness is -0.29 ± 0.17.

Consider KRPVSAMFIFSEEKRRQLQEERPELCESELTRLLARMWNDLSEKKKAKYKAREAALKAQSER [S26C], for which the abundance fitness is -0.263 ± 0.18.

Take KRPVSAMFIFSEEKRRQLQEERPELSESELTRLLARMWNQLSEKKKAKYKAREAALKAQSER [D40Q]: the abundance fitness is -0.036 ± 0.081.

On to KRPVSAMFIFSEEKRRQLQEERPELSESELTRLLARMWNHLSEKKKAKYKAREAALKAQSER [D40H], for which the abundance fitness was -0.257 ± 0.21.

In the case of KRPVSAMFCFSEEKRRQLQEERPELSESELTRLLARMWNDLSEKKKAKYKAREAALKAQSER [I9C], the abundance fitness is -0.074 ± 0.077.

On to KRPVSAMFIFSEEKRRQLQEERPELSESELTRLLARMWNDLSEKKCAKYKAREAALKAQSER [K46C], for which the abundance fitness was -0.537 ± 0.095.

As for KRPVSAMFIFSEEKRRQLQEERPELSESELTRLLARMWNDLSEKKYAKYKAREAALKAQSER [K46Y], the abundance fitness is -0.748 ± 0.084.

For the variant KRPVSAMFIFSEEGRRQLQEERPELSESELTRLLARMWNDLSEKKKAKYKAREAALKAQSER [K14G], the abundance fitness was -0.238 ± 0.058.

Regarding KRPVSAMFIFSEEIRRQLQEERPELSESELTRLLARMWNDLSEKKKAKYKAREAALKAQSER [K14I], the abundance fitness is -0.085 ± 0.15.

Turning to KRPVSAMFIFSEEPRRQLQEERPELSESELTRLLARMWNDLSEKKKAKYKAREAALKAQSER [K14P], the abundance fitness is -0.956 ± 0.092.

Take KRPVSAMFIFSEEKRRQLQTERPELSESELTRLLARMWNDLSEKKKAKYKAREAALKAQSER [E20T]: the abundance fitness is -0.067 ± 0.082.

Turning to KRPVSAMFIFSEEKRRQLQEERPELSESELTRLLARMWNDLSEKKKAKYKAREAALKAQSDR [E61D], the abundance fitness was -0.069 ± 0.11.

Take LRPVSAMFIFSEEKRRQLQEERPELSESELTRLLARMWNDLSEKKKAKYKAREAALKAQSER [K1L]: the abundance fitness is -0.048 ± 0.16.

In the case of ARPVSAMFIFSEEKRRQLQEERPELSESELTRLLARMWNDLSEKKKAKYKAREAALKAQSER [K1A], the abundance fitness is -0.287 ± 0.14.

As to KRPVSAMFIFSEEKRRQLQEERPELSESELTRLLARMDNDLSEKKKAKYKAREAALKAQSER [W38D], the abundance fitness was -0.456 ± 0.099.

Take KRPVSAMFIFSEEKRRQLQEERPELSESECTRLLARMWNDLSEKKKAKYKAREAALKAQSER [L30C]: the abundance fitness was -0.078 ± 0.084.

With KRPVSAMFIFSEEKRRQLQEERPELSESEYTRLLARMWNDLSEKKKAKYKAREAALKAQSER [L30Y], the abundance fitness was -0.099 ± 0.095.

KRPVSAMFIFSEEKRRQLQEERPELSESELTRALARMWNDLSEKKKAKYKAREAALKAQSER [L33A]: the abundance fitness was -0.118 ± 0.052.

Turning to KRPVSAMFIFSEEKRRQLQEERPELSESELTRMLARMWNDLSEKKKAKYKAREAALKAQSER [L33M], the abundance fitness was -0.023 ± 0.17.

As for KRPVSAMFIFSEEKRRQLAEERPELSESELTRLLARMWNDLSEKKKAKYKAREAALKAQSER [Q19A], the abundance fitness was -0.036 ± 0.06.

Take KRPVSAMFIFSEEKRRQLQEERPELSESELTRLLARMWNDLSEKKKAKYKARCAALKAQSER [E53C]: the abundance fitness is -0.086 ± 0.11.

KRPVSAMFIFSEEKRRQLQEERPELSESELTRLLARMWNDLSEKKKAKYKARLAALKAQSER [E53L]: the abundance fitness is -0.183 ± 0.056.

For the variant KRPVSAMFIFSEEKRRQLQEERPELSESELTRLLARMWNDLSEKKKAKYKAREAALKAGSER [Q59G], the abundance fitness is -0.063 ± 0.054.

For KRPVSAMFIFSEEKRRQLQEERPELSESELTRLLARMWNDLSEKKKAKYKAREAALKAESER [Q59E], the abundance fitness was 0.009 ± 0.064.

Consider KRPVSAMFIFSEEKRRQLQEERPELSESELTRLLARMWNDLSEKKKAKYKAREAALKALSER [Q59L], for which the abundance fitness was -0.054 ± 0.038.

Turning to KRPVSAMFIFSEEKRRQLQEERPELSESELTRLLARMWNDLSEKKKAKYKAREAALKAVSER [Q59V], the abundance fitness is -0.034 ± 0.051.

On to KRPVSAMFIFSEEKRRQLQEERPELSESELTRLLARMWNDSSEKKKAKYKAREAALKAQSER [L41S], for which the abundance fitness is -0.228 ± 0.061.

On to KRPVSAMFIFSEEKRRQLQEERPELSESELTRLLARMWNDYSEKKKAKYKAREAALKAQSER [L41Y], for which the abundance fitness is -0.507 ± 0.25.

As for KRPVSAMFIFSEEKRRQLQEERPELSESELTRLLARMWNDRSEKKKAKYKAREAALKAQSER [L41R], the abundance fitness is -0.57 ± 0.054.

In the case of KRPVSAMFIFSEEKRRQLQEERPELSESELTRLLARMWNDLSEKKKAKYQAREAALKAQSER [K50Q], the abundance fitness was -0.016 ± 0.079.

For the variant KRPVSAMFIFSEEKRRQLQEERPELSESELTRLLARMWNDLSEKKKAKYCAREAALKAQSER [K50C], the abundance fitness is -0.049 ± 0.099.

As to KRPVSAMFIFSEEKRRQLQEERPELSESELTRLLARMWNDLSEKKKAKYIAREAALKAQSER [K50I], the abundance fitness stood at 0.005 ± 0.11.

Turning to KRPVSAMFIFSEEKRRQLQEERPELSESELTRLLARMWNDLSEKKKAKYMAREAALKAQSER [K50M], the abundance fitness was -0.096 ± 0.083.

On to KRPVSAMFIFREEKRRQLQEERPELSESELTRLLARMWNDLSEKKKAKYKAREAALKAQSER [S11R], for which the abundance fitness was -0.13 ± 0.043.

As to KRPVSAMFIFSEFKRRQLQEERPELSESELTRLLARMWNDLSEKKKAKYKAREAALKAQSER [E13F], the abundance fitness was -0.359 ± 0.13.

With KRPVSAMFIFSEWKRRQLQEERPELSESELTRLLARMWNDLSEKKKAKYKAREAALKAQSER [E13W], the abundance fitness is -0.355 ± 0.054.

In the case of KRPVSAMFIFSEEKRRLLQEERPELSESELTRLLARMWNDLSEKKKAKYKAREAALKAQSER [Q17L], the abundance fitness was -0.034 ± 0.046.

With KRPVSAMFIFSEEKRRCLQEERPELSESELTRLLARMWNDLSEKKKAKYKAREAALKAQSER [Q17C], the abundance fitness was -0.211 ± 0.078.

Consider KRPVSMMFIFSEEKRRQLQEERPELSESELTRLLARMWNDLSEKKKAKYKAREAALKAQSER [A6M], for which the abundance fitness was -0.418 ± 0.094.
